Data on 20 sequences can be found in the DeepSol protein solubility set.

This series in a line: soluble on expression in E. coli; label from the status in PepcDB or PDB records.
For “MSVDPACPQSLPCFEASDCKESSPMPVICGPEENYPSLQMSSAEMPHTETVSPLPSSMDLLIQDSPDSSTSPKGKQPTSAENSVAKKEDKVPVKKQKTRTVFSSTQLCVLNDRFQRQKYLSLQQMQELSNILNLSYKQVKTWFQNQRMKSKRWQKNNWPKNSNGVTQKASAPTYPSLYSSYHQGCLVNPTGNLPMWSNQTWNNSTWSNQTQNIQSWSNHSWNTQTWCTQSWNNQAWNSPFYNCGEESLQSCMHFQPNSPASDLEAALEAAGEGLNVIQQTTRYFSTPQTMDLFLNYSMNMQPEDV”, the “soluble on expression in E. coli” value is recorded as “soluble”.
The same measure for “MKYFQEADIAVTVCDKTGKIIDMNEQSRQVNLKPGQELIGSNVLDCHPEPARSMLEEMMRQERKHVYTIEKNGRKKLIYQIPWYEKGEYMGFLELSMVIPFEMEHKIRTPKPAND”: “not soluble”; for “DVQPETCRPSAASGNYFPQYPEYAIETARLRTFEAWPRNLKQKPHQLAEAGFFYTGVGDRVRCFSCGGGLMDWNDNDEPWEQHALWLSQCRFVKLMKGQLYIDTVAAKPVLAEEKEESTSIGGD”: “soluble”.
In the case of “MASIAYGNNNYVIVKRDGKILTSSDGHEWKEKYFLQGGSFTSVTYNGNMFVAAGAYTVALPYGGPLTYGKCVIMTSPDGNNWQLQDAGYNADLKGITWSGKKFAVAGTNIILSSENGITWNAVEVNAILHDIAFGNGIFAAVGYDGVIMSSVDGEHWETKVEALRYDLTNIVWYDNKFIAIGSGSTPSIVVSGDGKTRVARGPKDASYKCDSSLHNVEWRKTGCSRLRQYYSDRRAKGYS”, the “soluble on expression in E. coli” value is “soluble”.
In the case of “LEQVNDKRISPLRPMRLRLIPLKCKTQPKKGKLSLQSVQKIYVNPRSNGTFKRVPLAGDLFKSRMRQPERDMQKNKLHDSDWQSNM”, the “soluble on expression in E. coli” value was “soluble”.
The entry for “RNQVEHEAKVSLAKSFGAGIAHEMRNPLSGLCTSIDVIQSVLPNKKAMGEKDQYVMSGEDVTLLREVSEDAMNIIHSGNETIDLLLTSIDENRVSRSSFKRYSAQSVVEKAIESFSYKRSTDRFAISFDARSEFDFLGSDTLLKYVMYNLFKNAFHHRSSDEFHIHVSMQSNDTANQIVVTDNGSGIAPDVIRHIFQDFYTTGKSGSYGLGLPFCKKVMRSFGGNIKCISQPGEWSQFTLTFPPITSDTVTEIKDELTKMKSILLVSNQDIIVQKMADISRFMGFDVTVLDVKSVFKKKEYEFEFDLIFVDVESLDVLENQLDRIESLLSFTEARVVYLFEHKPAQRAKKVGHDPIWVETQAWLLNTKATIERLLYDSTYISSTLPSAPL” is “not soluble”; for “MVKLRDWQEKLKDKVIEGLRNNFLVALNAPTGSGKTLFSLLVSLEVKPKVLFVVRTHNEFYPIYRDLTKIREKRNITFSFLVGKPSSCLYAEKGAESEDIPCKYCELKGSIVEVKTDDSPLSLVKKLKKDGLQDKFCPYYSLLNSLYKADVIALTYPYFFIDRYREFIDIDLREYMIVIDEAHNLDKVNELEERSLSEITIQMAIKQSKSEESRRILSKLLNQLREVVLPDEKYIKVENVPKLSKEELEILADDYEDIRKDSLKQGKVNKIHIGSILRFFSLLSIGSFIPFSYSKRLVIKNPEISYYLNLLNDNELSIILMSGTLPPREYMEKVWGIKRNMLYLDVEREIQKRVSGSYECYIGVDVTSKYDMRSDNMWKRYADYLLKIYFQAKANVLVVFPSYEIMDRVMSRISLPKYVESEDSSVEDLYSAISANNKVLIGSVGKGKLAEGIELRNNDRSLISDVVIVGIPYPPPDDYLKILAQRVSLKMNRENEEFLFKIPALVTIKQAIGRAIRDVNDKCNVWLLDKRFESLYWKKNLKCLNANKMKL” it is “soluble”.
Take “MGSDKIHHHHHHMRVLAIRHVEIEDLGMMEDIFREKNWSFDYLDTPKGEKLERPLEEYSLVVLLGGYMGAYEEEKYPFLKYEFQLIEEILKKEIPFLGICLGSQMLAKVLGASVYRGKNGEEIGWYFVEKVSDNKFFREFPDRLRVFQWHGDTFDLPRRATRVFTSEKYENQGFVYGKAVGLQFHIEVGARTMKRWIEAYKDELEKKKIDPRLLLETAEREEKVLKGLLRSLLERMVES”: the “soluble on expression in E. coli” value is reported as “not soluble”.
The entry for “MSLSRTTQLPFAKRQFFQVLARNYSNTQDADLVVIGGGPGGYVAAIKAAQLGMKTVCVEKNATLGGTCLNVGCIPSKALLNNSHYLHMAQHDFAARGIDCTASLNLPKMMEAKSNSVKQLTGGIKQLFKANKVGHVEGFATIVGPNTVQAKKNDGSVETINARNILIASGSEVTPFPGITIDEKQIVSSTGALSLGQVPKKMVVIGAGVIGLELGSVWQRLGAEVTAVEFLGHVGGMGIDGEVSKNFQRSLTKQGFKFLLNTKVMGASQNGSTITVEVEGAKDGKKQTLECDTLLVSVGRRPYTEGLGLSNVQIDLDNRGRVPVNERFQTKVPSIFAIGDVIEGPMLAHKAEDEGILCVEGIAGGPVHIDYNCVPSVVYTHPEVAWVGKAEEQLKQEGVAYKIGKFPFVANSRAKTNNDQEGFVKVLADKQTDRMLGVHIIGPNAGEMIAEATLAMEYGASAEDVARVCHPHPTLSEAFREANLAAYCGKAINNV” is “not soluble”; for “LQERELAKAAQEAEKKGEAFPDVPVTLYEAIVRDYTGRTPEAREQTLIVTHLNEDRRVLNSMIQDALAKPGEQQVTVPVLTTANIRDGELRRLSTWEAHPGALALVDNVYHRIAGISKEDGLITLEDKAGNTRLISPREAAAEGVTLYNPETIRVGAGDRMRFTKSDRERGYVANSVWTVTAVSGDSVTLSDGKQTRVVRPGQDRAEQHIDLAYAITAHSAQGASETFAIALEGTEGGRKQMAGFESAYVALSRMKQHVQVYTDDRQGWVKAINSAEQKGTAHDVLEPKSEREMMNAERLFSTARELRDVAAGRAVLRNAGLAQGDSRARFIAPGRKYPQPYVALPAFDRNGKSAGIWLNPLTTDDGAGLRGFTGEGRVKGSEEAQFVALQGSRNGESLLAGSMQDGVRIARENPDSGVVVRIVGDGRPWNPVAITGGRVWGDIPDSNVQPGAGNGEPVTAEILAQRQAEEAVRRETERRADEIVRKMAEDKSDLPEEKTAQAVREIAGQEQDRMTPPEREPPLPESVLREPQRER” it is “not soluble”; for “MAHHHHHHMRPGRLDKTIVVPLPDIKGRYEILKMYSSKIVLSKDVDLHVLSRRTVGMTGADLNNILNIAAIKCSVEGKKAVDMNSIEQAFDRVVVGLQRKSPLNEEEKNITAYHEGGHTLVNFYTKGSDPVHKATIMPRGMSLGVTWKIPISDKYSQKIRDVQSEIDILMGGLVSEEIIFGKNNVTTGCSSDLQRATHIAQSLVMNYGVGINEENISMFLQDKKNISEEMKIKIDKSIQRILLDSYNRAKKVLNQHIDELHRVASALVEYETLTSDEIKLAMQGKHDQIRKNRELKQKEFNLKDSRIS” it is “not soluble”.
Regarding “MINQNATYMEESAQSAVDNFGLGFNLGNTLDANGCGTGKPVATYETFWGQPETTQDMMTFLMQNGFNAVRIPVTWYEHMDAEGNVDEAWMMRVKAIVEYAMNAGLYAIVNVHHDTAAGSGAWIKADTDVYAATKEKFKKLWTQIANALADYDQHLLFEGYNEMLDGNNSWDEPQKASGYEALNNYAQDFVDAVRATGGNNATRNLIVNTYAAAKGENVLNNFMLPTDAVNNHLIVQVHSYDPWNFFNTKTTWDSECHNTLTEIFSALSKKFTTIPYIIGEYGTHGESDISVSKSSPAEKIKLAADQAADMVKLAKDHHSATFYWMSIFDGSDRIQPQWSLPTVVEAMQEAYNN”, the “soluble on expression in E. coli” value is “soluble”.
As for “MATRADEDGDTPLHIAVVQGNLPAVHRLVNLFQQGGRELDIYNNLRQTPLHLAVITTLPSVVRLLVTAGASPMALDRHGQTAAHLACEHRSPTCLRALLDSAAPGTLDLEARNYDGLTALHVAVNTECQETVQLLLERGADIDAVDIKSGRSPLIHAVENNSLSMVQLLLQHGANVNAQMYSGSSALHSASGRGLLPLVRTLVRSGADSSLKNCHNDTPLMVARSRRVIDILRGKATRPAS”, the “soluble on expression in E. coli” value is on record as “soluble”.
On to “MNEKFRTDLAHTFGIALEEQTDVLSFHDNDGHEWILECASQSEILFFYCYLLNSESIQINSILEMNSNRELLGMFFLSLKDDNILLNIAFPADKIDITEFANLMENGYLLKNEIIRSLSSRPTDFLP”, for which the “soluble on expression in E. coli” value is recorded as “not soluble”.
The same measure for “MSEEKQTVEQNETEEQEIIEEQAAADEQQEETNESELLQNQINELQGLLEEKENKLLRVQADFENYKRRSRLEMEASQKYRSQNIVTDLLPALDSFERALQVEADNEQTKSLLQGMEMVHRQLVEALKKEGVEAIEAVGQEFDPNLHQAVMQAEDENYGSNIVVEEMQKGYKLKDRVIRPSMVKVNQ”: “not soluble”.
Regarding “MTELHGECMCGAVTITATPARAALGACHCDMCRRWTSSAYVSFPVEPGYAALGPVKVYGSSDWAERAFCGTCGSVLWYRITLPGKMHGQTQMAAGLFENAGGNALKLELYIDKKPEGYAFAGERRQMTQAEVEAMYAPSDLGDSQ”, the “soluble on expression in E. coli” value is reported as “not soluble”.
Take “MRRELGMGSEWLGEECEIVMGQSPPSETCNTVGIGIPLLNGPTEFGPHHPSPAQFTTDVRKRAIPGDILFCVRGSTTGRMNWADQEYAIGRGIAAIRHKFKPELQPFVRAVIECYLPELLAQATGSTFPNVSAQQLSNLKWPELAADEQRAIAYILGTLDDKIELNRKQNETLEAMARALFKAWFVDFEPVRAKLEGRWQRGQSLPGLPAHLYDLFPDCLVDSELGEIPEGWEIGSFADVVEIIGGSTPKTSVSEYWGGDIPWFSVVDTPASSDVFVVQTEKSITQSGLNESSARLISKGTTIISARGTVGNLAIAGCDMTFNQSCYALRSKNSLGSYFVFLSAQRMVEQLKAMAHGSVFSTITRQTFEAVQTVLPPENVLQQFERSFASLFDEILNNVNESRTLAKLRDTLLPKLISGELRVNDAKRILARIELDTATQRREQ”: the “soluble on expression in E. coli” value was “soluble”.
On to “SLTLPQTERQYLSGHGCDDMVEWDFFCTDGRNSGKWTKIGVPSCWELQGFGTYQYGITFYGKAFPEGIADEKGMYKYEFEVPEKFRGQQVNLVFEASMTDTEVKVNGRKVGSKHQGAFYRFSYNVTDFLKYGKKNLLEVTVSKESENASVNLAERRADYWNFGGIFRPVFLEVKPAINLRHIAIDAQMDGSFRANCYTNLSNDGMSIRAQILDNKGKKLTETTVPVKAGGDWTSLQLKVSDPALWTAETPNLYKAQFSLLDKDGKVLHNETETFGFRTIEVRESDGLYVNGVRIMVRGVNRHSFRPESGRTLSKAKNIEDVLLMKDMNMNSVRLSHYPADPEFLEACDSLGLYVMDELGGWHGKYDTPTGVRLIKGMIERDVNHPSIIWWSNGNEKGWNTELDGEFHKYDPQKRPVIHPQGNFSGFETMHYRSYGESQNYMRLPEIFMPTEFLHGLYDGGHGAGLYDYWEMMRKHPRCIGGFLWVLADEGVKRVDMDGFIDNQGNFGADGIVGPHHEKEGSFYTIKQLWSPVQIMNTSVDKQFDGKFSVENRYDYLNLNTCRFLWKQVKFPTATDASNTTAQVLKQGEVQGSDVAAHSAGVLDIKTTILPDADALFLTAIDRYGHELWRWTFPVNKLNQANEVLSPLSNEG”, for which the “soluble on expression in E. coli” value was “soluble”.
Turning to “MSLTAIHRPTWVSVDLDAAAHNLQEIREWTKAKKVYAVLKADGYGLGAIPLAKAFQETASADALIVSNLDEALELRQADLTLPIWVLGAWDYSDLKLFIDHDIVITIPSLAWLQNLPDFEGTLKVSLAIDTGMTRIGFDKADEISAAKKIIDKNPQLDLFSVYTHFATADEAGEKSKAYFEEQLRRWQELTINQGFDPSLFSMANSATCIWHHDDPRISFAAIRPGQLISGVNVSNGELKMPPNLHLERIFSVCSEIADVRFVKKDQSLSYGASERMPEDGYVATLPFGYNDGWLRRMQKSSVIINGKRMPIIGRITMDQTMVKLDRKYPIGTRVTLIGKDGGEQITVEEVANYSHTIVDEIQTTLAPRIKRIYTGDLAEVIGANYGEGHHHHHH”, the “soluble on expression in E. coli” value is given as “soluble”.
Turning to “MAHKQSTNNETSNGSTTEIIDETDARAQLESGRTTPTLLLRLEHPRNERRVAFHAGIIDNEHLNRKKSKCCCIYKKPLAFGESSSEDDEDCEHCFGHPEKRQRNAKHNHNHGDKPCTEASHPEGPSTSTQAAHISQPPAEPVESKTDPKPPTPGVDFEQTGSSMGHHHHHHSH”, the “soluble on expression in E. coli” value is “soluble”.
